Values belong to the molecule of their own block, whether it stands above or below them.
Assays:
[1] = target: T1, human Bcl-XL protein produced as a GST fusion (Homo sapiens, UniProt Q07817); assay: Binding of mRNA display constructs to Bcl-XL-GST fusion protein immobilized on glutathione Sepharose beads (scintillation counting); conditions: BH3 domain or control peptides as individual mRNA display constructs, 1 hr 4° C.
T1 construct: made in house; host or cells: E. coli BL21 (DE3) pLysS
Method: Detection of a polypeptide binding to a Bcl-XL-glutathione S-transferase (GST) fusion protein was carried out as follows. Twenty microliters of glutathione Sepharose 4B slurry (AP Biotech) was aliquoted to a microcentrifuge tube and washed with PBS. The Bcl-XL-GST fusion protein (60 μg), prepared as describe above, was added and allowed to bind to the Sepharose beads for 1 hr at 4° C. The beads were then re-washed in selection buffer (50 mM Tris-HCL pH 7.5, 150 mM KCl, 0.05% Triton X-100, 0.5 mg/ml BSA, and 0.1 mg/ml salmon sperm DNA). […] The extent of binding between the Bcl-XL-GST fusion protein and the mRNA display constructs or free peptides was determined by scintillation counting each fraction, including the recovered beads.
Members of the Bcl-2 family of apoptotic proteins function via homo- and heterodimerization, occurring primarily through the binding of a single α-helix designated the BH3 domain (Bcl-2 Homology domain 3) in a corresponding pocket produced by three α-helices in the interacting partner (Diaz et al., J. Biol. Chem. 272:11350-11355, 1997; and Sattler et al., Science 275:983-986, 1997). […] The amount of peptide bound to the beads was determined by scintillation counting and graphed as the percent of input counts bound (FIG. 2B).

[2] = target: human Bcl-XL-GST fusion protein (human) [GST: P08515]; assay: purified labeled free peptide on immobilized Bcl-XL-GST
Sequence of human Bcl-XL-GST fusion protein (human) [GST: P08515] (P08515 1-218, tags or fused parts left off): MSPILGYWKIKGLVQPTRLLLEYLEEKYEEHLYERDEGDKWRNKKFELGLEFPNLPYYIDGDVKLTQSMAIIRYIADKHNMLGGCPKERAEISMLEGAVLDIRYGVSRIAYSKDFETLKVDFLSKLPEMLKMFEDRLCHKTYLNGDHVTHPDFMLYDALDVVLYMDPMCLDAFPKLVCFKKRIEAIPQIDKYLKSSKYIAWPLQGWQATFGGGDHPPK

[3] = target: T2, Bcl-XL-GST fusion protein (Homo sapiens, UniProt Q07817); assay: Free purified polypeptide binding to Bcl-XL-GST fusion protein (additional selection, FIG. 9); conditions: purified free polypeptides
T2 construct: made in house; host or cells: E. coli BL21 (DE3) pLysS
T2 sequence (Q07817 1-211): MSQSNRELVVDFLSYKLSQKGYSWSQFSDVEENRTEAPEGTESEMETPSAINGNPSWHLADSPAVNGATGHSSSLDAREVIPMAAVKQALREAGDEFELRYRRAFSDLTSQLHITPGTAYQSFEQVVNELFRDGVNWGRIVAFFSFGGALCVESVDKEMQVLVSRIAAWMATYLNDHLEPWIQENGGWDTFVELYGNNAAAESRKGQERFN
Method: (§1) Detection of a polypeptide binding to a Bcl-XL-glutathione S-transferase (GST) fusion protein was carried out as follows. Twenty microliters of glutathione Sepharose 4B slurry (AP Biotech) was aliquoted to a microcentrifuge tube and washed with PBS. The Bcl-XL-GST fusion protein (60 μg), prepared as describe above, was added and allowed to bind to the Sepharose beads for 1 hr at 4° C. The beads were then re-washed in selection buffer (50 mM Tris-HCL pH 7.5, 150 mM KCl, 0.05% Triton X-100, 0.5 mg/ml BSA, and 0.1 mg/ml salmon sperm DNA). The Bcl-XL-GST beads were resuspended in 100 μl of selection buffer (approximately 11.5 μM Bcl-XL) and ^35S-labeled mRNA display construct or free peptide was added (approximately 10-60 nM) and incubated on a rotator for 1 hr at 4° C. The reaction was then transferred to a microcentrifuge column (BioRad) and unbound mRNA display constructs or free peptides were removed by a 10 sec spin at 1,000 rpm. The Sepharose beads were then washed three times with 500 μl of selection buffer. The extent of binding between the Bcl-XL-GST fusion protein and the mRNA display constructs or free peptides was determined by scintillation counting each fraction, including the recovered beads. […]

[4] = target: T3, human Bcl-XL-GST fusion protein (human, UniProt P08515 1-218 = GST; Q07817 1-211); assay: labeled free peptide on Bcl-XL-GST beads, immobilized target varied from 11 nM to 28 µM
T3 construct: Made in E. coli, immobilized on glutathione Sepharose beads; whole entry named; also called Bcl-XL-glutathione S-transferase (GST) fusion protein; GST-BCL-XL
T3 sequence (P08515 1-218, tags or fused parts left off): as the sequence (P08515 1-218, tags or fused parts left off) above
Method: Detection of a polypeptide binding to a Bcl-XL-glutathione S-transferase (GST) fusion protein was carried out as follows. Twenty microliters of glutathione Sepharose 4B slurry (AP Biotech) was aliquoted to a microcentrifuge tube and washed with PBS. The Bcl-XL-GST fusion protein (60 μg), prepared as describe above, was added and allowed to bind to the Sepharose beads for 1 hr at 4° C. The beads were then re-washed in selection buffer (50 mM Tris-HCL pH 7.5, 150 mM KCl, 0.05% Triton X-100, 0.5 mg/ml BSA, and 0.1 mg/ml salmon sperm DNA). The Bcl-XL-GST beads were resuspended in 100 μl of selection buffer (approximately 11.5 μM Bcl-XL) and ³⁵S-labeled mRNA display construct or free peptide was added (approximately 10-60 nM) and incubated on a rotator for 1 hr at 4° C. […] The extent of binding between the Bcl-XL-GST fusion protein and the mRNA display constructs or free peptides was determined by scintillation counting each fraction, including the recovered beads.
Purified radioactively labeled protein from the individual clones was incubated with immobilized Bcl-XL-GST for one hour and, after washing, the amount bound was determined by scintillation counting. […] The amount of peptide bound to Bcl-XL was determined by scintillation counting and normalized to that bound at the highest concentration. […]

[5] = target: T3, human Bcl-XL-GST fusion protein; assay: 35S-labeled mRNA display construct on Bcl-XL-GST glutathione Sepharose beads, scintillation counting
Method: as §1, with “³⁵S-labeled” for “^35S-labeled”

[6] = target: T3, human Bcl-XL-GST fusion protein; assay: labeled free peptide on immobilized Bcl-XL-GST with Bak BH3 competitor
Method: Only three of the selected proteins (Bim, Bak, and Bax) were previously known to contain a BH3 domain. In order to determine if the other proteins bound to the BH3 domain binding site on Bcl-XL, a competition assay was performed. The Bak BH3 domain peptide used as a positive control was prepared by chemical synthesis and used to compete with individual Bcl-XL-binding polypeptides in a Bcl-XL binding assay. […] At a fixed concentration of immobilized Bcl-XL, the Bak BH3 domain-containing peptide […] (SEQ ID NO: 152), also containing a FLAG-M2 epitope, was added at the indicated concentration along with a trace amount of a selected Talin fragment. After binding for 1 hour, the unbound material was removed and the bound protein was quantitated. The bound protein was assayed by scintillation counting, normalized to that bound in the absence of competitor, and plotted versus competitor concentration.
A competition assay was performed for each of the selected Bcl-XL-binding polypeptides using 20 μM Bak BH3 competitor based on the titration shown in FIG. 6.

T1 sequence (Q07817 1-211): as the sequence (Q07817 1-211) above

percent of input counts bound to Bcl-XL-GST [1]: no binding was observed
Molecule: Bcl-2: BH3 domain of Bcl-2 prepared as mRNA display construct (FIG. 2A) (PVVHLTLRQAGDDFSR)

percent bound [2]: 32%
Molecule: Bax (clone AttB-Hc-7) (from UniProt Q07812 40-95) (peptide)

Binding to the Bcl-XL-GST fusion protein [3]: 6%
Molecule: Bmf: selected Bmf polypeptide of the additional selection, purified free polypeptide (KAEVQIARKLQCIADQFHRLHVL)

binding result [4]: binds
B1: Bak BH3 domain-containing peptide MGQVGRQLAIIGDDINRDYKDDDDKASA (peptide)
peptide: MGQVGRQLAIIGDDINRDYKDDDDKASA
notes: Chemically synthesized free peptide; also called selected Bak fragment

binding result [5]: no binding
B2: BH3 domain of Bcl-2, mRNA display construct (peptide, UniProt P10415 91-106, looked up)
peptide: PVVHLTLRQAGDDFSR
notes: domain: BH3 domain; Peptide fused to its mRNA through puromycin; also called BH3 helix from Bcl-2

binding result [6]: binds
B3: clone t53 (peptide)
chain: LDPVKDVLILSALRRMLWAADDFLEDLPFEQIG
notes: mRNA display clone from a known polypeptide

Reference: patent publication US20030032157A1, “Polypeptides interactive with Bcl-XL” (priority 2001, published 2003)
